Changes are numbered by the printed parent chain.
Experiments:
Assay in all cases: SPR; KD relative to WT C2;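 also: biacore SPR at 37 °C, anti-C2 mAbs captured on an anti-human IgG chip, alanine or serine C2 surface mutants tested, KD from 1:1 fit compared with wild-type C2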
[1] = target: T1, human C2 E267A (human, UniProt P06681 21-752)
T1 sequence: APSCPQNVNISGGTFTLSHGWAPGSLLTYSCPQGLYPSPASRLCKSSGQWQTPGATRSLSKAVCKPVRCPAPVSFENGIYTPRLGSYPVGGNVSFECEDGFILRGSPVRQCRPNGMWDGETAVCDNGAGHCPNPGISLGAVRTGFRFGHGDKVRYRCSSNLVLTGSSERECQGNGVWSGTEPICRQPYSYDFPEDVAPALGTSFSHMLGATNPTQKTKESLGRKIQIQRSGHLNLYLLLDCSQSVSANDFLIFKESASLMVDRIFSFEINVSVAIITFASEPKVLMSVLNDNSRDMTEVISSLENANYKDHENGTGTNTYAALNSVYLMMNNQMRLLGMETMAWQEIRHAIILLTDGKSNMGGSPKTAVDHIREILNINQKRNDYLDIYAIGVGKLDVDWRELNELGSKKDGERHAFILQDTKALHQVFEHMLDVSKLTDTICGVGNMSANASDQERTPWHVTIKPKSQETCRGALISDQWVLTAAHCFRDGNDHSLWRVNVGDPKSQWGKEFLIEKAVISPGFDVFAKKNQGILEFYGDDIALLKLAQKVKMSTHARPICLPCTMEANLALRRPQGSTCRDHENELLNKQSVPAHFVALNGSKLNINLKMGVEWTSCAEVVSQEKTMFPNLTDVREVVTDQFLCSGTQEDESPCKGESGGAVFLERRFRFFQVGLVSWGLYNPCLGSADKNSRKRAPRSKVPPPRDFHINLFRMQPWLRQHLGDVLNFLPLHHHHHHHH

[2] = target: T2, human C2 M316A (human, UniProt P06681 21-752)
T2 sequence: T1 sequence with A247E, M296A

[3] = target: T3, human C2 K415A (human, UniProt P06681 21-752)
T3 sequence: T1 sequence with A247E, K395A

[4] = target: T4, human C2 Q447A (human, UniProt P06681 21-752)
T4 sequence: T1 sequence with A247E, Q427A

B1: RF16-214 (antibody, V domains shown)
VH: EVQLLESGGGLVQPGGSLRLSCAASGFTFSWYQMMWVRQAPGKGLEWVSRIYPSGGGTAYADSVKGRFTISRDNSKNTLYLQMNSLRAEDTAVYYCARDAGYGDNWGQGTLVTVSS
VL: QSALTQPPSVSVSPGQTASITCSGDKLGEKYASWYQQKAGQSPVMVIYQDRKRPSGIPERFSGSNSGNTATLTISGTQAMDEADYYCQAWDTRAVVFGGGTKLTVLG
Question: Which Fold diff [1] does the source give for B1 here?
Answer: 1 fold

Question: What about the Fold diff [2] of the same binder?
Answer: 1 fold

Question: And the Fold diff [3]?
Answer: 1 fold

Question: What about the Fold diff [4] of the same binder?
Answer: 4 fold
